Where two headings read alike, the source gives them in different places.
Key:
RecA [1] = biological target: T1, RecA (Escherichia coli, UniProt P0A7G6 1-353); assay: double filter binding
RecA [2] = biological target: T1, RecA; assay: double filter binding; remark: listed apart in the source

T1 sequence (P0A7G6 whole entry): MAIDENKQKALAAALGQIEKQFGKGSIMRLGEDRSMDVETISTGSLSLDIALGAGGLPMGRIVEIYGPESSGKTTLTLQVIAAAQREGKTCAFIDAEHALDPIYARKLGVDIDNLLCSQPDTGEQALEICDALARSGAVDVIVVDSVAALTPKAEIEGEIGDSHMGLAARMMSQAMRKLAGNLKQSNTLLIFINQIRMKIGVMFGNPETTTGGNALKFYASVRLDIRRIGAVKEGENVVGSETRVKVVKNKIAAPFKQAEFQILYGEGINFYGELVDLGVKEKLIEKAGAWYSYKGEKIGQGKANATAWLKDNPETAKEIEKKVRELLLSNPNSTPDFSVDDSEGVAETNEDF

Row | Binder | Kd (RecA [1]) [nM] | Kd (RecA [2]) [nM]
1 | CCACCACCACCACCACCACCACCACCACCACCACCACCACCACCACCA (ssDNA) [CCA-repeating 48mer] | 246 | –
2 | TGGTGGTGGTGGTGGTGGTGGTGGTGGTGGTGGTGGTGGTGGTGGTGG (ssDNA) [TGG-repeating 48mer] | – | 91
